From US20260159591A1 (FIBROCOR THERAPEUTICS, published 2026)
Values belong to the binder of their own block, whether it stands above or below them.

Assays:
[1] = biological target: T1, human ITGA11 expressed in mouse C2C12 cells (human, UniProt Q9UKX5 23-1188); test: flow cytometry, 34 nM antibody on C2C12 cells expressing human ITGA11
T1 construct: whole, on cells; also called integrin α11; C2C12 cells expressing human ITGA11
T1 sequence (looked up): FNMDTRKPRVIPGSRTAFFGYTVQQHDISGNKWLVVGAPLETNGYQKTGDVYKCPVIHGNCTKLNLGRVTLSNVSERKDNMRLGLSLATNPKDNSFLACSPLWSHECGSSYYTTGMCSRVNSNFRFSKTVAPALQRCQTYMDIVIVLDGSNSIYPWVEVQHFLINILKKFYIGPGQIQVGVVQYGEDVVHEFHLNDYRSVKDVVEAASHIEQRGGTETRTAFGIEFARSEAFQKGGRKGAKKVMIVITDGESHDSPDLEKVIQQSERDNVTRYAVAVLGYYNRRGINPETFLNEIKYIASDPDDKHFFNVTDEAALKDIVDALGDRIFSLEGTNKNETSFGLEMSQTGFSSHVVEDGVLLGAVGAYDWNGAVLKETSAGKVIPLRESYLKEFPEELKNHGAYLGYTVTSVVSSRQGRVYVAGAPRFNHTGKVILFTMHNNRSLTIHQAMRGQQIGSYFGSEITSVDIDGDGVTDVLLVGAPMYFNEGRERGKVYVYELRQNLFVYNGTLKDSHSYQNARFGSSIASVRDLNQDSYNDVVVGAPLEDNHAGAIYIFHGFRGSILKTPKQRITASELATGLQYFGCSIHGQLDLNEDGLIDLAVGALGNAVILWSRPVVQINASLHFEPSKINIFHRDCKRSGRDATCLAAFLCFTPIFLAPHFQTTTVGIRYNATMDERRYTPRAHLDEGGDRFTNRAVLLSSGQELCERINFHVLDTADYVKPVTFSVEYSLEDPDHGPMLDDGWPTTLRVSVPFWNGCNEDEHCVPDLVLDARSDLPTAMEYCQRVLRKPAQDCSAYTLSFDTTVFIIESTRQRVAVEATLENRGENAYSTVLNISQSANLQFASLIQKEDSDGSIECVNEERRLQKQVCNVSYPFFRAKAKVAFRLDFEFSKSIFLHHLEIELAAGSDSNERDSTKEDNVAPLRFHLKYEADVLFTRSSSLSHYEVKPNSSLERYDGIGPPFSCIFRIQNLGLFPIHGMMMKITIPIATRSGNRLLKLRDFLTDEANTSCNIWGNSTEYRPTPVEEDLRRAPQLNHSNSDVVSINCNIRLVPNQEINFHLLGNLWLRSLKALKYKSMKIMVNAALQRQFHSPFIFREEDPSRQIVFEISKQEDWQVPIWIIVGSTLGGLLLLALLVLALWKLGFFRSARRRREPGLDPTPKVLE
Method: (§1) Antibody binding to C2C12 cells expressing human ITGA11 or CHO cells expressing murine ITGA11 was performed by incubating the cells with the antibodies at a concentration of 34 nM for 1 hour at 4° C. in binding medium (PBS, 10% normal goat serum, 2% rabbit serum, and 1% BSA). Cells were washed in binding medium and binding was detected using goat-anti-human Fc BV421 (Jackson ImmunoLabs). After washing the cells were resuspended in binding medium and binding was assessed by flow cytometry. 226 antibodies were screened and the binding characteristics of 10 antibodies are presented below. The results are provided in Table 2 and are expressed as mean fluorescence intensity (MFI).

[2] = biological target: T2, murine ITGA11 expressed in CHO cells (murine, UniProt P61622 23-1188); test: flow cytometry, 34 nM antibody on CHO cells expressing murine ITGA11
T2 construct: whole, on cells; Only the alpha chain is named for these cells; also called mouse ITGA11; CHO cells expressing murine ITGA11
T2 sequence (looked up): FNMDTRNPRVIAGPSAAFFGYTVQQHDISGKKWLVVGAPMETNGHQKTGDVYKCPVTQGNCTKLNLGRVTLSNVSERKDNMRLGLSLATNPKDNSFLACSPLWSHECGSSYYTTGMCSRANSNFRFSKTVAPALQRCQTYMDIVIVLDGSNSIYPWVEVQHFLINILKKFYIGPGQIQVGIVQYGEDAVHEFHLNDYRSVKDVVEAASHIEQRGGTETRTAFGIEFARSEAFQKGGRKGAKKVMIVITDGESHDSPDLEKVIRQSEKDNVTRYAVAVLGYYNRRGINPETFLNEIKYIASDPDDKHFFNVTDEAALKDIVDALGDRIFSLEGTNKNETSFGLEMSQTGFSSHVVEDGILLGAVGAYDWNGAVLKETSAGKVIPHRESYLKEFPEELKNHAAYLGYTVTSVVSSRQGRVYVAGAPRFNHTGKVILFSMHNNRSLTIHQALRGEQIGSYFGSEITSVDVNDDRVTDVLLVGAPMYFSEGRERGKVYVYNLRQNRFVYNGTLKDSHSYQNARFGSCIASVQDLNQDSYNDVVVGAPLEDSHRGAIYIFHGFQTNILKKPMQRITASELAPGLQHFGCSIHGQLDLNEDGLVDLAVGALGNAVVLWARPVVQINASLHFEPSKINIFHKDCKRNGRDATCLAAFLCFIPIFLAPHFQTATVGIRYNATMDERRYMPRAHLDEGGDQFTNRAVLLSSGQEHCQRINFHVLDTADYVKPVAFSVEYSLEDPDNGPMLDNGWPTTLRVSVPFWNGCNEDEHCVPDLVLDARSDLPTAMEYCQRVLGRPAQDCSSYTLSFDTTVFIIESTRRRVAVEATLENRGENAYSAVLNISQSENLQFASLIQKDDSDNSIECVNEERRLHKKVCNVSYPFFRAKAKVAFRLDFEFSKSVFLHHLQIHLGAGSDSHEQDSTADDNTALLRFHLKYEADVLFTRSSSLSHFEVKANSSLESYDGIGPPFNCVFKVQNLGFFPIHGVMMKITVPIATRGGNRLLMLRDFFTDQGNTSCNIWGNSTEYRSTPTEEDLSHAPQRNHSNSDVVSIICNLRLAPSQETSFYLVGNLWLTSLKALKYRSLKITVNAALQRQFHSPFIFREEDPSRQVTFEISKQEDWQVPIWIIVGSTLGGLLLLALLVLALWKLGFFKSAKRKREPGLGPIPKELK
Method: as §1

B1: mAb FIB-918-3 (antibody, human IgG4, V domains shown)
VH: EVQLVESGGGLVQPGGSLRLSCAASGFTFSSYSMNWVRQAPGKGLEWVSYISSSSSTIYYADSVKGRFTISRDNAKNSLYLQMNSLRAEDTAVYYCARGPDLSDYFDYWGRGTLVTVSS
VL: not shown
MFI [1]: 5220 MFI
MFI [2]: 1520 MFI

B3: mAb FIB-918-7 (antibody, human IgG4, V domains shown)
VH: EVQLVESGGGLVQPGGSLRLSCAASGFMFDTHAMSWVRQAPGKGLEWVSSISGSGGSIYYADSVKGRFTISRDNSKNTLYLQMNSLRAEDTAVYYCARSGETAGTDYFDYWGQGTLVTVSS
VL: EIVMTQSPATLSLSPGERATLSCRASQSVSSSYLSWYQQKPGQAPRLLIYGASTRATGIPARFSGSGSGTDFTLTISSLQPEDFAVYYCQQDYNSPYTFGQGTKVDIKR
MFI [1]: 7870 MFI
MFI [2]: 21300 MFI

B4: mAb FIB-918-6 (antibody, V domains shown)
VH: EVQLLESGGDLVKAGGSLRLSCAASGFTFSNAWMSWVRQAPGKGLEWVSGISGSGGSTYYADSVKGRFTISRDNSKNTLYLQMNSLRAEDTAVYYCARDRGYSYSETSNDAFDIWGRGTLVTVSS
VL: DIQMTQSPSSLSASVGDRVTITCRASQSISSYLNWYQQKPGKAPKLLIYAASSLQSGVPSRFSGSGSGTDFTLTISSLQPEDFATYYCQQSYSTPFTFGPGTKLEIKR
MFI [1]: 7880 MFI
MFI [2]: 9410 MFI

B7: mAb FIB-918-4 (antibody, human IgG4, V domains shown)
VH: QVQLVQSGAEVKKPGATVKISCKVSGYTFTDYYMHWVRQAPGKGLEWMGGFDPEDGETIYAQKFQGRVTMTEDTSTDTAYMELSSLRSEDTAVYYCATLDYRGVVYFDYWGQGTLVTVSS
VL: NFMLTQPHSVSDSPGKTVTISCTGSSGSIASNYVQWYQQRPGSAPTTVIYEDKRRPSGVPDRFIGSIDSSSNSASLTISGLRTEDEADYYCQSYDSSNHWVFGGGTQLTVLG
MFI [1]: 15700 MFI
MFI [2]: 4570 MFI

B8: mAb FIB-918-2 (antibody, human IgG4, V domains shown)
VH: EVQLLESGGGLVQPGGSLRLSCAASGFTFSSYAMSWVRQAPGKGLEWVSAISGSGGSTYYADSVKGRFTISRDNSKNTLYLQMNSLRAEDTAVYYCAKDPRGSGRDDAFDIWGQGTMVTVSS
VL: NIQMTQSPSSLSASVGDRVTITCRASQTIGSYLNWYQQKPGTAPKLLIYGASTSHTWVPSRFTGGGSGTEFTLTISSLQSEDFATYYCQQSYSTPFTFGGGTKLEIKR
MFI [1]: 30400 MFI
MFI [2]: 12600 MFI

Now from value to binder:

MFI [1]: 1450 MFI
MFI [2]: 2030 MFI
B2: mAb FIB-918-9 (antibody, V domains shown)
VH: EVQLVESGGGLVQPGGSLRLSCLASGFTFSDYWMAWVRQAPGKGLEWVSAISGSGGSTYYADSVKGRFTISRDNSKNTLYLQMNSLRAEDTAVYYCAKDLLWAARDAFDIWGQGTLVTVSS
VL: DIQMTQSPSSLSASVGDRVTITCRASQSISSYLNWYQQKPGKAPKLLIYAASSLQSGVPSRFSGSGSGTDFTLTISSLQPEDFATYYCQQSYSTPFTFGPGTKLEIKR

MFI [1]: 10600 MFI
MFI [2]: 8570 MFI
B5: mAb FIB-918-10 (antibody, human IgG4, V domains shown)
VH: not shown
VL: AIQLTQSPSTLSASVGDRVTITCRASQGINDFLAWYQQKPGKAPKLLIYAASSLQSGVPSRFSGSGSGTDFTLTISSLQPEDFATYYCQQSYSTPLTFGGGTKVEIKR

MFI [1]: 41500 MFI
MFI [2]: 32900 MFI
B6: mAb FIB-918-8 (antibody, V domains shown)
VH: EVQLVESGGGVVRPGGPLRLSCAASGFTFSNAWMSWVRQAPGKGLEWVSAISGSGGSTYYADSVKGRFTISRDNSKNTLYLQMNSLRAEDTAIYYCAKQTVTSADDYFDYWGQGTLVTVSS
VL: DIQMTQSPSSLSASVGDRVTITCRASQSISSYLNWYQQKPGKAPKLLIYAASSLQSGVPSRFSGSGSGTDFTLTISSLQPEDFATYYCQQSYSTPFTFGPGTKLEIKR
